Assay results taken from publication PMC5561218.

Experiments:
[1] = biological target: fibrinogen related-protein 30 (FBN30), insect cell-expressed recombinant (Anopheles gambiae); test: SEC; concentrated Hi5 medium on a Superdex 200 10/300 GL column, PBS pH 7.4, 0.4 mL/min, calibrated with protein standards; FBN30 in the fractions quantified by ELISA with anti-FBN30; octamer of four disulfide-linked homodimers
[2] = biological target: fibrinogen related-protein 30 (FBN30), insect cell-expressed recombinant (Anopheles gambiae); test: non-reducing and reducing SDS-PAGE with western blot; 12% SDS-PAGE without or with beta-ME of culture medium of transfected Hi5 cells; FBN30 detected with anti-FBN30 antibody; covalent (disulfide) dimer

stoichiometry N [1]: 8
stoichiometry N [2]: 2
Substance: fibrinogen related-protein 30 (FBN30), insect cell-expressed recombinant (natural protein)
